The values that follow come from publication doi:10.1101/2020.05.06.080622.

Like-named read-outs stand apart in the source and are kept apart here.

What all share (experiment): EMSA
The target of data set [1] is T1, G4P (HIS-G4P-3xFLAG) (artificial (RHAU-derived), UniProt Q9H2U1 53-75+=GTGSGAGTGSGAGTGSGA+53-75, internal_change).
T1 sequence: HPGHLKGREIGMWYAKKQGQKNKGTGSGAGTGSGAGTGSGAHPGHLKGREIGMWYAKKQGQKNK

Data set [2] deals with T1, G4P (HIS-G4P-3xFLAG). The source holds these as a separate data set.
The target in data set [3] is T1, G4P (HIS-G4P-3xFLAG). This is another data set of the same source.

Regarding AAGGGAGGGCGGCGGGGCAGGGA (structured_DNA) [PDGFR-β], in the data set with G4P (HIS-G4P-3xFLAG) [1], the binding result is listed as “binds”. With GGGGCCGGGGCCGGGGCCGGGGCC (structured_DNA) [C9orf72], in the data set with G4P (HIS-G4P-3xFLAG) [2], the binding result is “binds”.

B1: dsCSTB (dsDNA)
DNA 1: CCTGAAGCAGACAGCTAGTGAATTCGGGGCGGGGCGCGGGGCGGGGTACTTGCGTATAACTGTTCCATAGT
DNA 2: ACTATGGAACAGTTATACGCAAGTACCCCGCCCCGCGCCCCGCCCCGAATTCACTAGCTGTCTGCTTCAGG
Take B1: the binding result with G4P (HIS-G4P-3xFLAG) [3] is reported as “binds”.
